# Source: patent US20240270846A1 (published 2024)
# Molecular target: T1, CD3 epsilon homodimer protein (UniProt P07766 23-126)
# T1 construct: Immobilized on Sensor chip CM4 by amine coupling; construct not described; also called CD3 (CD3 epsilon)
# Assay: SPR Biacore T200, CD3 epsilon homodimer on CM4 chip, antibody as analyte;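 note: Amine-coupled CD3 epsilon homodimer, run at 25 °C in HBS-EP+ buffer, ratio is bound amount of each single-residue H chain variant over that of the parent antibody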
# T1 sequence (P07766 23-126): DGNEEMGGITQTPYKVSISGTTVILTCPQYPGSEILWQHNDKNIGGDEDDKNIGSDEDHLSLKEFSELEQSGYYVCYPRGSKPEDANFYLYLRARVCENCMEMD
row,Binder,ratio of amounts bound (Y/X vs CE115HA000)
1,"CE115HA000 G98D one-arm antibody (antibody, human IgG1, kappa, L234A L235A, N297A, name in Kabat numbering, one-arm antibody (one Fab)) heavy: QVQLVESGGGVVQPGRSLRLSCAASGFTFSNAWMHWVRQAPGKGLEWVAQIKAKSNNYATYYAESVKGRFTISRDDSKNSLYLQMNSLKTEDTAVYYCRYVHYDAYYGVDAWGQGTTVTVSSASTKGPSVFPLAPSSKSTSGGTAALGCLVKDYFPEPVTVSWNSGALTSGVHTFPAVLQSSGLYSLSSVVTVPSSSLGTQTYICNVNHKPSNTKVDKKVEPKSCDKTHTCPPCPAPEAAGGPSVFLFPPKPKDTLMISRTPEVTCVVVDVSHEDPEVKFNWYVDGVEVHNAKTKPREEQYASTYRVVSVLTVLHQDWLNGKEYKCKVSNKALPAPIEKTISKAKGQPREPQVYTLPPSRCELTKNQVSLSCAVKGFYPSDIAVEWESNGQPENNYKTTPPVLDSDGSFFLVSKLTVDKSRWQQGNVFSCSVMHEALHNHYTQKSLSLSPDYKDDDDK EPKSSDKTHTCPPCPAPELLGGPSVFLFPPKPKDTLMISRTPEVTCVVVDVSHEDPEVKFNWYVDGVEVHNAKTKPREEQYNSTYRVVSVLTVLHQDWLNGKEYKCKVSNKALPAPIEKTISKAKGQPREPQVCTLPPSRDELTKNQVSLWCLVKGFYPSDIAVEWESNGQPENNYKTTPPVLDSDGSFFLYSKLTVDKSRWQQGNVFSCSVMHEALHNRYTQKSLSLSP light: DIVMTQSPLSLPVTPGEPASISCRSSQSLVHSNRNTYLHWYQQKPGQAPRLLIYKVSNRFSGVPDRFSGSGSGTDFTLKISRVEAEDVGVYYCGQGTQVPYTFGQGTKLEIKRTVAAPSVFIFPPSDEQLKSGTASVVCLLNNFYPREAKVQWKVDNALQSGNSQESVTEQDSKDSTYSLSSTLTLSKADYEKHKVYACEVTHQGLSSPVTKSFNRGEC",0.26
2,"CE115HA000 G98H one-arm antibody (antibody, human IgG1, kappa, L234A L235A, N297A, name in Kabat numbering, one-arm antibody (one Fab)) heavy: QVQLVESGGGVVQPGRSLRLSCAASGFTFSNAWMHWVRQAPGKGLEWVAQIKAKSNNYATYYAESVKGRFTISRDDSKNSLYLQMNSLKTEDTAVYYCRYVHYHAYYGVDAWGQGTTVTVSSASTKGPSVFPLAPSSKSTSGGTAALGCLVKDYFPEPVTVSWNSGALTSGVHTFPAVLQSSGLYSLSSVVTVPSSSLGTQTYICNVNHKPSNTKVDKKVEPKSCDKTHTCPPCPAPEAAGGPSVFLFPPKPKDTLMISRTPEVTCVVVDVSHEDPEVKFNWYVDGVEVHNAKTKPREEQYASTYRVVSVLTVLHQDWLNGKEYKCKVSNKALPAPIEKTISKAKGQPREPQVYTLPPSRCELTKNQVSLSCAVKGFYPSDIAVEWESNGQPENNYKTTPPVLDSDGSFFLVSKLTVDKSRWQQGNVFSCSVMHEALHNHYTQKSLSLSPDYKDDDDK EPKSSDKTHTCPPCPAPELLGGPSVFLFPPKPKDTLMISRTPEVTCVVVDVSHEDPEVKFNWYVDGVEVHNAKTKPREEQYNSTYRVVSVLTVLHQDWLNGKEYKCKVSNKALPAPIEKTISKAKGQPREPQVCTLPPSRDELTKNQVSLWCLVKGFYPSDIAVEWESNGQPENNYKTTPPVLDSDGSFFLYSKLTVDKSRWQQGNVFSCSVMHEALHNRYTQKSLSLSP light: DIVMTQSPLSLPVTPGEPASISCRSSQSLVHSNRNTYLHWYQQKPGQAPRLLIYKVSNRFSGVPDRFSGSGSGTDFTLKISRVEAEDVGVYYCGQGTQVPYTFGQGTKLEIKRTVAAPSVFIFPPSDEQLKSGTASVVCLLNNFYPREAKVQWKVDNALQSGNSQESVTEQDSKDSTYSLSSTLTLSKADYEKHKVYACEVTHQGLSSPVTKSFNRGEC",1.58
3,"CE115HA000 G98K one-arm antibody (antibody, human IgG1, kappa, L234A L235A, N297A, name in Kabat numbering, one-arm antibody (one Fab)) heavy: QVQLVESGGGVVQPGRSLRLSCAASGFTFSNAWMHWVRQAPGKGLEWVAQIKAKSNNYATYYAESVKGRFTISRDDSKNSLYLQMNSLKTEDTAVYYCRYVHYKAYYGVDAWGQGTTVTVSSASTKGPSVFPLAPSSKSTSGGTAALGCLVKDYFPEPVTVSWNSGALTSGVHTFPAVLQSSGLYSLSSVVTVPSSSLGTQTYICNVNHKPSNTKVDKKVEPKSCDKTHTCPPCPAPEAAGGPSVFLFPPKPKDTLMISRTPEVTCVVVDVSHEDPEVKFNWYVDGVEVHNAKTKPREEQYASTYRVVSVLTVLHQDWLNGKEYKCKVSNKALPAPIEKTISKAKGQPREPQVYTLPPSRCELTKNQVSLSCAVKGFYPSDIAVEWESNGQPENNYKTTPPVLDSDGSFFLVSKLTVDKSRWQQGNVFSCSVMHEALHNHYTQKSLSLSPDYKDDDDK EPKSSDKTHTCPPCPAPELLGGPSVFLFPPKPKDTLMISRTPEVTCVVVDVSHEDPEVKFNWYVDGVEVHNAKTKPREEQYNSTYRVVSVLTVLHQDWLNGKEYKCKVSNKALPAPIEKTISKAKGQPREPQVCTLPPSRDELTKNQVSLWCLVKGFYPSDIAVEWESNGQPENNYKTTPPVLDSDGSFFLYSKLTVDKSRWQQGNVFSCSVMHEALHNRYTQKSLSLSP light: DIVMTQSPLSLPVTPGEPASISCRSSQSLVHSNRNTYLHWYQQKPGQAPRLLIYKVSNRFSGVPDRFSGSGSGTDFTLKISRVEAEDVGVYYCGQGTQVPYTFGQGTKLEIKRTVAAPSVFIFPPSDEQLKSGTASVVCLLNNFYPREAKVQWKVDNALQSGNSQESVTEQDSKDSTYSLSSTLTLSKADYEKHKVYACEVTHQGLSSPVTKSFNRGEC",2.83
4,"CE115HA000 G98R one-arm antibody (antibody, human IgG1, kappa, L234A L235A, N297A, name in Kabat numbering, one-arm antibody (one Fab)) heavy: QVQLVESGGGVVQPGRSLRLSCAASGFTFSNAWMHWVRQAPGKGLEWVAQIKAKSNNYATYYAESVKGRFTISRDDSKNSLYLQMNSLKTEDTAVYYCRYVHYRAYYGVDAWGQGTTVTVSSASTKGPSVFPLAPSSKSTSGGTAALGCLVKDYFPEPVTVSWNSGALTSGVHTFPAVLQSSGLYSLSSVVTVPSSSLGTQTYICNVNHKPSNTKVDKKVEPKSCDKTHTCPPCPAPEAAGGPSVFLFPPKPKDTLMISRTPEVTCVVVDVSHEDPEVKFNWYVDGVEVHNAKTKPREEQYASTYRVVSVLTVLHQDWLNGKEYKCKVSNKALPAPIEKTISKAKGQPREPQVYTLPPSRCELTKNQVSLSCAVKGFYPSDIAVEWESNGQPENNYKTTPPVLDSDGSFFLVSKLTVDKSRWQQGNVFSCSVMHEALHNHYTQKSLSLSPDYKDDDDK EPKSSDKTHTCPPCPAPELLGGPSVFLFPPKPKDTLMISRTPEVTCVVVDVSHEDPEVKFNWYVDGVEVHNAKTKPREEQYNSTYRVVSVLTVLHQDWLNGKEYKCKVSNKALPAPIEKTISKAKGQPREPQVCTLPPSRDELTKNQVSLWCLVKGFYPSDIAVEWESNGQPENNYKTTPPVLDSDGSFFLYSKLTVDKSRWQQGNVFSCSVMHEALHNRYTQKSLSLSP light: DIVMTQSPLSLPVTPGEPASISCRSSQSLVHSNRNTYLHWYQQKPGQAPRLLIYKVSNRFSGVPDRFSGSGSGTDFTLKISRVEAEDVGVYYCGQGTQVPYTFGQGTKLEIKRTVAAPSVFIFPPSDEQLKSGTASVVCLLNNFYPREAKVQWKVDNALQSGNSQESVTEQDSKDSTYSLSSTLTLSKADYEKHKVYACEVTHQGLSSPVTKSFNRGEC",2.96
5,"CE115HA000 G98Q one-arm antibody (antibody, human IgG1, kappa, L234A L235A, N297A, name in Kabat numbering, one-arm antibody (one Fab)) heavy: QVQLVESGGGVVQPGRSLRLSCAASGFTFSNAWMHWVRQAPGKGLEWVAQIKAKSNNYATYYAESVKGRFTISRDDSKNSLYLQMNSLKTEDTAVYYCRYVHYQAYYGVDAWGQGTTVTVSSASTKGPSVFPLAPSSKSTSGGTAALGCLVKDYFPEPVTVSWNSGALTSGVHTFPAVLQSSGLYSLSSVVTVPSSSLGTQTYICNVNHKPSNTKVDKKVEPKSCDKTHTCPPCPAPEAAGGPSVFLFPPKPKDTLMISRTPEVTCVVVDVSHEDPEVKFNWYVDGVEVHNAKTKPREEQYASTYRVVSVLTVLHQDWLNGKEYKCKVSNKALPAPIEKTISKAKGQPREPQVYTLPPSRCELTKNQVSLSCAVKGFYPSDIAVEWESNGQPENNYKTTPPVLDSDGSFFLVSKLTVDKSRWQQGNVFSCSVMHEALHNHYTQKSLSLSPDYKDDDDK EPKSSDKTHTCPPCPAPELLGGPSVFLFPPKPKDTLMISRTPEVTCVVVDVSHEDPEVKFNWYVDGVEVHNAKTKPREEQYNSTYRVVSVLTVLHQDWLNGKEYKCKVSNKALPAPIEKTISKAKGQPREPQVCTLPPSRDELTKNQVSLWCLVKGFYPSDIAVEWESNGQPENNYKTTPPVLDSDGSFFLYSKLTVDKSRWQQGNVFSCSVMHEALHNRYTQKSLSLSP light: DIVMTQSPLSLPVTPGEPASISCRSSQSLVHSNRNTYLHWYQQKPGQAPRLLIYKVSNRFSGVPDRFSGSGSGTDFTLKISRVEAEDVGVYYCGQGTQVPYTFGQGTKLEIKRTVAAPSVFIFPPSDEQLKSGTASVVCLLNNFYPREAKVQWKVDNALQSGNSQESVTEQDSKDSTYSLSSTLTLSKADYEKHKVYACEVTHQGLSSPVTKSFNRGEC",1.22
6,"CE115HA000 G98P one-arm antibody (antibody, human IgG1, kappa, L234A L235A, N297A, name in Kabat numbering, one-arm antibody (one Fab)) heavy: QVQLVESGGGVVQPGRSLRLSCAASGFTFSNAWMHWVRQAPGKGLEWVAQIKAKSNNYATYYAESVKGRFTISRDDSKNSLYLQMNSLKTEDTAVYYCRYVHYPAYYGVDAWGQGTTVTVSSASTKGPSVFPLAPSSKSTSGGTAALGCLVKDYFPEPVTVSWNSGALTSGVHTFPAVLQSSGLYSLSSVVTVPSSSLGTQTYICNVNHKPSNTKVDKKVEPKSCDKTHTCPPCPAPEAAGGPSVFLFPPKPKDTLMISRTPEVTCVVVDVSHEDPEVKFNWYVDGVEVHNAKTKPREEQYASTYRVVSVLTVLHQDWLNGKEYKCKVSNKALPAPIEKTISKAKGQPREPQVYTLPPSRCELTKNQVSLSCAVKGFYPSDIAVEWESNGQPENNYKTTPPVLDSDGSFFLVSKLTVDKSRWQQGNVFSCSVMHEALHNHYTQKSLSLSPDYKDDDDK EPKSSDKTHTCPPCPAPELLGGPSVFLFPPKPKDTLMISRTPEVTCVVVDVSHEDPEVKFNWYVDGVEVHNAKTKPREEQYNSTYRVVSVLTVLHQDWLNGKEYKCKVSNKALPAPIEKTISKAKGQPREPQVCTLPPSRDELTKNQVSLWCLVKGFYPSDIAVEWESNGQPENNYKTTPPVLDSDGSFFLYSKLTVDKSRWQQGNVFSCSVMHEALHNRYTQKSLSLSP light: DIVMTQSPLSLPVTPGEPASISCRSSQSLVHSNRNTYLHWYQQKPGQAPRLLIYKVSNRFSGVPDRFSGSGSGTDFTLKISRVEAEDVGVYYCGQGTQVPYTFGQGTKLEIKRTVAAPSVFIFPPSDEQLKSGTASVVCLLNNFYPREAKVQWKVDNALQSGNSQESVTEQDSKDSTYSLSSTLTLSKADYEKHKVYACEVTHQGLSSPVTKSFNRGEC",1.02
